# Measured values from patent publication US20200405889A1 (WASHINGTON UNIVERSITY, published 2020).
# Where no end group is shown, it is not given here. [ ]: non-standard residue; d: D form.
# B1: ^64CuAuNCs-ECL1i (other)
# peptide: [dL]G[dT][dF][dL][dK][dC]
# modifications: not fully specified (residue 7); also: peptide joined via TA-PEG-Maleimide to a gold nanocluster doped with 64Cu, copy number not given here
# Molecular target: mouse chemokine (C-C motif) receptor 2 (CCR2) (mouse, UniProt P51683 1-373)
# Sequence (P51683 whole entry): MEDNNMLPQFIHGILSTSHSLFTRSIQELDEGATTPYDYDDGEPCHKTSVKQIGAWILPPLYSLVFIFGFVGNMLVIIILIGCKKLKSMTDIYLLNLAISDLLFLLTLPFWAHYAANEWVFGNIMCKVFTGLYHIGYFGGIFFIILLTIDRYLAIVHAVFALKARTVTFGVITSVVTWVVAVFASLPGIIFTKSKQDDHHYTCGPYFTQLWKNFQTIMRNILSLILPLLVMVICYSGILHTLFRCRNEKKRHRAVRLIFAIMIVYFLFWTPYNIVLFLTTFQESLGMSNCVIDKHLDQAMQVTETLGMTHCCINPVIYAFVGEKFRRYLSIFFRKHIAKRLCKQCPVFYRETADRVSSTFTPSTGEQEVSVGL
# Experiment: cell-based or functional assay
binder,measurement,value
B1,"graft/native lung uptake ratio, PET at 4 hours",7.24 ratio
same,"graft/native lung uptake ratio, PET at 24 hours",8.44 ratio
same,"graft/native lung uptake ratio, PET, printed 'At 4 hours after transplantation'",6.58 ratio
